T1: LAG3 antigen of the Octet RED96 runs (UniProt P18627 23-450, limits assumed)
T1 sequence (looked up): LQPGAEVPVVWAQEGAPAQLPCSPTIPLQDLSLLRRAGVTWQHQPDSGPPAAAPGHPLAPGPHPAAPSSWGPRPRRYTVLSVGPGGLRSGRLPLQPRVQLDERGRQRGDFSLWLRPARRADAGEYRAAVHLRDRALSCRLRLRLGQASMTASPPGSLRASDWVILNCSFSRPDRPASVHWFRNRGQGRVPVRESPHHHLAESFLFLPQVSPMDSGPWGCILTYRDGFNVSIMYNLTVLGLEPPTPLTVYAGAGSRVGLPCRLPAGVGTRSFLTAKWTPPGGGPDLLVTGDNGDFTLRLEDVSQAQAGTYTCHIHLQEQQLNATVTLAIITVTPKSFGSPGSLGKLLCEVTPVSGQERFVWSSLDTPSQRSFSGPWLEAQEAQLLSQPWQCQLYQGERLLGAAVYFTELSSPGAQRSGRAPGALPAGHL

T2: human LAG3 of the LAG3 and MHC II binding assay kit (Cisbio, 64ICP03PEG) (human, UniProt P18627 23-450, limits assumed)
T2 construct: Bought kit reagent
T2 sequence (looked up): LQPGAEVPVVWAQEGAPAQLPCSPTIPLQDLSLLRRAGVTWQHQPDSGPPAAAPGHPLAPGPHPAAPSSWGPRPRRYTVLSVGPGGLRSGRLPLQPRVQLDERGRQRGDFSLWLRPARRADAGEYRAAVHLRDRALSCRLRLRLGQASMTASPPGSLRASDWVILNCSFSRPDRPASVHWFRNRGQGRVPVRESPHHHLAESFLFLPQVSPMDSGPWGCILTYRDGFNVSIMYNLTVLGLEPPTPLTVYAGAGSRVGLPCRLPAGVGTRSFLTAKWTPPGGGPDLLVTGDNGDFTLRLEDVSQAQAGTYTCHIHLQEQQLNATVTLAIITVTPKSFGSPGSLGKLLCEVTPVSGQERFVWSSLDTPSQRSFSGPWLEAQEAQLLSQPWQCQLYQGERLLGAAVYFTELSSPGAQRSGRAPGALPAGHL

B1: 147H-6 (antibody, V domains shown)
VH: QVQLVQSGAEVKKPGASVKVSCKASGYTFTNYWLGWIKQAPGQGLEWIGDIYPGGDYINYNEKFKGKATLTADTSISTAYMELSRLRSDDTAVYYCARPNLPGDYWGQGTTVTVSS
VL: DIVMTQSPLSLPVTPGEPASISCRSSKSLLHSNGITYLYWYLQKPGQSPQLLIYQVSNLASGVPDRFSGSGSGTDFTLKISRVEAEDVGVYYCAQNLELPWTFGGGTKVEIK
B2: 147H-13 (antibody, V domains shown)
VH: EVQLVQSGAEVKKPGASVKVSCKASGYTFTNYWLGWIKQAPGQGLEWIGDIYPGGDYINYNEKFKGKATLTADTSISTAYMELSRLRSDDTAVYYCARPNLPGDYWGQGTTVTVSS
VL: DIVMTQSPLSLPVTPGEPASISCRSSKSLLHSNGITYLYWYLQKPGQSPQLLIYQVSNLASGVPDRFSGSGSGTDFTLKISRVEAEDVGVYYCAQNLELPWTFGGGTKVEIK
notes: also called 147H4-13
B3: 147H 3810 (antibody, V domains shown)
VH: EVQLVQSGAEVKKPGASVKVSCKASGYLFTNYWLGWIKQAPGQGLEWIGDIYPGGDYIVYNEKFKGKATLTADTSISTAYMELSRLRSDDTAVYYCARPNLPKDHWGQGTTVTVSS
VL: DIVMTQSPLSLPVTPGEPASISCRSSKSLLHSNAITYLYWYLQKPGQSPQLLIYQVSNLATGVPDRFSGSGSGTDFTLKISRVEAEDVGVYYCAQYLELPWTFGGGTKVEIK
notes: also called B3810
B4: 147H 3809 (antibody, V domains shown)
VH: EVQLVQSGAEVKKPGASVKVSCKASGYLFTNYWLGWIKQAPGQGLEWIGDIYPGGDYIVYNEKFKGKATLTADTSISTAYMELSRLRSDDTAVYYCARPNLPKDHWGQGTTVTVSS
VL: DIVMTQSPLSLPVTPGEPASISCRSSKSLLHSNAITYLYWYLQKPGQSPQLLIYQVSNLASGVPDRFSGSGSGTDFTLKISRVEAEDVGVYYCAQYLELPWTFGGGTKVEIK
B5: 147H 3808 (antibody, V domains shown)
VH: EVQLVQSGAEVKKPGASVKVSCKASGYTFTNYWLGWIKQAPGQGLEWIGDIYPGGDYIVYNEKFKGKATLTADTSISTAYMELSRLRSDDTAVYYCARPNLPKDHWGQGTTVTVSS
VL: DIVMTQSPLSLPVTPGEPASISCRSSKSLLHSNAITYLYWYLQKPGQSPQLLIYQVSNLASGVPDRFSGSGSGTDFTLKISRVEAEDVGVYYCGQYLELPWTFGGGTKVEIK
B6: 147H 3421 (antibody, V domains shown)
VH: EVQLVQSGAEVKKPGASVKVSCKASGYTFTNYWLGWIKQAPGQGLEWIGDIYPGGDYINYNEKFKGKATLTADTSISTAYMELSRLRSDDTAVYYCARPNLPKDHWGQGTTVTVSS
VL: DIVMTQSPLSLPVTPGEPASISCRSSKSLLHSNAITYLYWYLQKPGQSPQLLIYQVSNLASGVPDRFSGSGSGTDFTLKISRVEAEDVGVYYCAQNLELPWTFGGGTKVEIK
B7: 147H 3794 (antibody, V domains shown)
VH: EVQLVQSGAEVKKPGASVKVSCKASGYLFTNYWLGWIKQAPGQGLEWIGDIYPGGDYIVYNEKFKGKATLTADTSISTAYMELSRLRSDDTAVYYCARPNLPGDYWGQGTTVTVSS
VL: DIVMTQSPLSLPVTPGEPASISCRSSKSLLHSNAITYLYWYLQKPGQSPQLLIYQVSNLASGVPDRFSGSGSGTDFTLKISRVEAEDVGVYYCAQYLELPWTFGGGTKVEIK
B8: 147H 3549 (antibody, V domains shown)
VH: EVQLVQSGAEVKKPGASVKVSCKASGYTFTNYWLGWIKQAPGQGLEWIGDIYPGGDYINYNEKFKGKATLTADTSISTAYMELSRLRSDDTAVYYCARPNLPKDHWGQGTTVTVSS
VL: DIVMTQSPLSLPVTPGEPASISCRSSKSLLHSNAITYLYWYLQKPGQSPQLLIYQVSNLASGVPDRFSGSGSGTDFTLKISRVEAEDVGVYYCAQYLEEPWTFGGGTKVEIK
B9: 147H 3811 (antibody, V domains shown)
VH: EVQLVQSGAEVKKPGASVKVSCKASGYLFTNYWLGWIKQAPGQGLEWIGDIYPGGDYIVYNEKFKGKATLTADTSISTAYMELSRLRSDDTAVYYCARPNLPKDHWGQGTTVTVSS
VL: DIVMTQSPLSLPVTPGEPASISCRSSKSLLHSNAITYLYWYLQKPGQSPQLLIYQVSNLATGVPDRFSGSGSGTDFTLKISRVEAEDVGVYYCGQYLELPWTFGGGTKVEIK
B10: 147H 3508 (antibody, V domains shown)
VH: EVQLVQSGAEVKKPGASVKVSCKASGYTFTNYWLGWIKQAPGQGLEWIGDIYPGGDYINYNEKFKGKATLTADTSISTAYMELSRLRSDDTAVYYCARPNLPKDHWGQGTTVTVSS
VL: DIVMTQSPLSLPVTPGEPASISCRSSKSLLHSNAITYLYWYLQKPGQSPQLLIYQVSNLASGVPDRFSGSGSGTDFTLKISRVEAEDVGVYYCGQNLELPWTFGGGTKVEIK
B11: 147H 3807 (antibody, V domains shown)
VH: EVQLVQSGAEVKKPGASVKVSCKASGYTFTNYWLGWIKQAPGQGLEWIGDIYPGGDYIVYNEKFKGKATLTADTSISTAYMELSRLRSDDTAVYYCARPNLPKDHWGQGTTVTVSS
VL: DIVMTQSPLSLPVTPGEPASISCRSSKSLLHSNAITYLYWYLQKPGQSPQLLIYQVSNLASGVPDRFSGSGSGTDFTLKISRVEAEDVGVYYCAQYLELPWTFGGGTKVEIK
notes: also called B3807
B12: 147H 3792 (antibody, V domains shown)
VH: EVQLVQSGAEVKKPGASVKVSCKASGYTFTNYWLGWIKQAPGQGLEWIGDIYPGGDYIVYNEKFKGKATLTADTSISTAYMELSRLRSDDTAVYYCARPNLPGDYWGQGTTVTVSS
VL: DIVMTQSPLSLPVTPGEPASISCRSSKSLLHSNAITYLYWYLQKPGQSPQLLIYQVSNLASGVPDRFSGSGSGTDFTLKISRVEAEDVGVYYCAQYLELPWTFGGGTKVEIK
B13: 147H 3668 (antibody, V domains shown)
VH: EVQLVQSGAEVKKPGASVKVSCKASGYTFTNYWLGWIKQAPGQGLEWIGDIYPGGDYIVYNEKFKGKATLTADTSISTAYMELSRLRSDDTAVYYCARPNLPGDYWGQGTTVTVSS
VL: DIVMTQSPLSLPVTPGEPASISCRSSKSLLHSNAITYLYWYLQKPGQSPQLLIYQVSNLATGVPDRFSGSGSGTDFTLKISRVEAEDVGVYYCAQNLELPWTFGGGTKVEIK
B14: 147H 3669 (antibody, V domains shown)
VH: EVQLVQSGAEVKKPGASVKVSCKASGYLFTNYWLGWIKQAPGQGLEWIGDIYPGGDYIVYNEKFKGKATLTADTSISTAYMELSRLRSDDTAVYYCARPNLPGDYWGQGTTVTVSS
VL: DIVMTQSPLSLPVTPGEPASISCRSSKSLLHSNAITYLYWYLQKPGQSPQLLIYQVSNLASGVPDRFSGSGSGTDFTLKISRVEAEDVGVYYCAQNLELPWTFGGGTKVEIK
B15: 147H 3663 (antibody, V domains shown)
VH: EVQLVQSGAEVKKPGASVKVSCKASGYTFENYWLGWIKQAPGQGLEWIGDIYPGGDYIVYNEKFKGKATLTADTSISTAYMELSRLRSDDTAVYYCARPNLPGDYWGQGTTVTVSS
VL: DIVMTQSPLSLPVTPGEPASISCRSSKSLLHSNAITYLYWYLQKPGQSPQLLIYQVSNLARGVPDRFSGSGSGTDFTLKISRVEAEDVGVYYCAQNLELPWTFGGGTKVEIK
B16: 147H 3550 (antibody, V domains shown)
VH: EVQLVQSGAEVKKPGASVKVSCKASGYTFTNYWLGWIKQAPGQGLEWIGDIYPGGDYINYNEKFKGKATLTADTSISTAYMELSRLRSDDTAVYYCARPNLPKDHWGQGTTVTVSS
VL: DIVMTQSPLSLPVTPGEPASISCRSSKSLLHSNAITYLYWYLQKPGQSPQLLIYQVSNLASGVPDRFSGSGSGTDFTLKISRVEAEDVGVYYCAQYLELPWTFGGGTKVEIK

Biological target: T1, LAG3 antigen of the Octet RED96 runs
Test: BLI, Octet RED96, full kinetics, antigen 3.125-50 nM
Procedure: The binding affinity was calculated by software in Octet® RED96 System.

Work on B1 yielded a Kd of 26.5 nM.

B1 gave a koff of 0.00312 s⁻¹.

B1 was tested, and the kon was 118000 M⁻¹ s⁻¹.

Biological target: T2, human LAG3 of the LAG3 and MHC II …
Test: TR-FRET LAG3/MHC II binding assay (Cisbio); blocks MHC II
Procedure: To measure the ability of anti-LAG3 monoclonal antibodies to block the interaction between human LAG3 and MHCII, the LAG3 and MHC II binding assay (Cisbio, 64ICP03PEG) were performed utilizing homogeneous TR-FRET technology, following the protocol provided by the kit manufacturer. Anti-human LAG3 antibodies were 3-fold diluted ranging from 100 nM to 5 pM (10 points). Fluorescence data was acquired on a PerkinElmer Envision plate reader and a four-parameter dose-response curve was fitted to obtain IC50 of each antibody.

Compared with B2, B3 is lower in IC50: 2.2 to 7.6 nM for the first, 0.63 nM for the second.

First: B4
Second: B5
The IC50 of the first is 1.9-fold higher: 0.96 nM for the first, 0.5 nM for the second.

First: B6
Second: B7
The IC50 of the first is 2.4-fold higher: 1.5 nM for the first, 0.63 nM for the second. The second is the more potent here.

B8 and B9 are within 1.5-fold of each other in IC50: 0.44 nM for the first, 0.59 nM for the second.

Going from B10 to B11, the IC50 falls from 0.55 nM to 0.31 nM (1.8-fold).

B12 and B13 are within 1.5-fold of each other in IC50: 0.73 nM for the first, 0.9 nM for the second.

Going from B14 to B15, the IC50 rises from 1.2 nM to 2.7 nM (2.3-fold). The first is the more potent here.

With B16 the IC50 was 0.39 nM.
